In general, stoichiometry N refers to the number of molecules, sites or subunits per partner or assembly.

This experiment addresses recombinant Ebola virus (EBOV) glycoprotein (Zaire ebolavirus (EBOV)) (UniProt Q05320). Briefly: SEC. For orientation: SEC sorts molecules by how far they enter the pores of the column.

Turning to “recombinant Ebola virus (EBOV) glycoprotein (from UniProt Q05320) (natural protein)”, the stoichiometry N came out at 3.

The record behind these values is paper PMC6825541.
